Measurements from the supplement of paper PMC10567573.
± gives the standard deviation.

Test: protein stability index of a GFP-peptide fusion (GPS, HEK-293T) (PSI 1-6); higher = more stable
[1] = treatment: DMSO, c terminus: a fixed tail appended
[2] = treatment: MLN4924 1 uM, 8 h, c terminus: a fixed tail appended
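Also: 24-mer peptide tiles fused after GFP, lentivirally expressed, FACS-sorted into six equal bins by GFP/DsRed ratio, decoded by Illumina sequencing, PSI is the read-weighted mean bin number.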

Sequence | protein stability index [1] | protein stability index [2] | protein stability index (treatment: DMSO, c terminus: native) | protein stability index (treatment: MLN4924 1 uM, 8 h, c terminus: native)
DSISLHQPCNPPAPAGDKGFQPPS [DMRTC1] | 5 ± 0.27 | 5 ± 0.16 | – | –
LGSYKAQKTSRSSSIPCSGSLDGR [PPEF2] | 4.177 ± 0.013 | 4.43 ± 0.14 | – | –
FGRKDHLTRHTKKTHSQELMKESL [PLAGL1] | 3.53 ± 0.2 | 3.77 ± 0.26 | – | –
ESITSAGRDDLESFQLEISGFLKE [FAM98B] | 3.9 ± 0.26 | 4.1 ± 0.28 | – | –
AIDMFIIGATFTDWFTSYVKNVVS [FBXO3] | 2.82 ± 0.35 | – | – | –
VLNPHPSLGYKEIRKGESRSEALA [CHGA] | 4.14 ± 0.19 | 4.5 ± 0.3 | – | –
DICLAQLEELGTLNVFQTVSRMRT [PTPN9] | 2.97 ± 0.22 | 2.79 ± 0.33 | – | –
GDLGDPFHLGLEDILMEEEEGVVG [TFE3] | 5.33 ± 0.34 | 5.3 ± 0.2 | – | –
LEKCKTLVSQSNDLSSLRAKYPHD [SPACA9] | 4.29 ± 0.16 | 4.4 ± 0.19 | – | –
LSLLGKLTISAAFNIVYIYTSELY [SLC22A15] | 3.31 ± 0.21 | 3.25 ± 0.28 | – | –
SRGYAYRDNGHSNRDEHSSRGYRN [RBMY1A1] | 4.31 ± 0.16 | 4.21 ± 0.12 | – | –
YLRPQSNYSSSQDALISVSYTIIT [OR10K2] | 2.73 ± 0.7 | 2.68 ± 0.99 | – | –
HYYLMDDTVEIREVHERNDGIDPF [EFHC1] | 3.92 ± 0.18 | 3.86 ± 0.32 | – | –
EQTYHAKLENARLSSEMNTSTVNS [LMNB1] | 4.88 ± 0.14 | 5.03 ± 0.19 | – | –
LALGRERLGEIHTLPLPASLKAYL [SPSB1] | 2.24 ± 0.38 | 2.15 ± 0.19 | – | –
HHFFCDIAPVLKLASHHNHFSQIV [OR10K2] | 2.45 ± 0.45 | 2.67 ± 0.55 | – | –
ALVRLRETEEMLGKKQEYLENRIQ [CHMP4C] | 3.02 ± 0.46 | 3.35 ± 0.2 | – | –
LGGVKKSATLRSFEGLMGTIKSKV [TPD52L3] | 2.64 ± 0.3 | 2.54 ± 0.26 | – | –
RSVSDQFYRYKMPRLIAKVEGKGN [EIF5] | 3.47 ± 0.19 | 3.46 ± 0.21 | – | –
DRDSIWKCLKFLGSRHPTLVLPLV [INTS4] | 2.15 ± 0.24 | 2.15 ± 0.22 | – | –
LKKGSKEKQADFLDKQMSRDEHRA [NFE2L1] | 5 ± 0.39 | 5.08 ± 0.32 | – | –
VLKKLAQSRRTALATSPITVGDLG [YJU2B] | 2.614 ± 0.015 | 2.58 ± 0.24 | – | –
LQSLRPHDEDIKTTNVKSASRQKT [ZNF396] | 5.14 ± 0.089 | 5.04 ± 0.28 | – | –

Sequence | protein stability index [1] | protein stability index [2] | protein stability index (treatment: DMSO, c terminus: native) | protein stability index (treatment: MLN4924 1 uM, 8 h, c terminus: native)
HGLQEGKDLFTQRQNSAPARMLSS [CDC25A] | 4.4 ± 0.18 | 4.46 ± 0.15 | – | –
MVQQIQENSVEFEACLVAQCDALI [TRIM9] | 2.9 ± 0.35 | 2.97 ± 0.36 | – | –
ATGLTSGLLSLLLPETLNSPLLET [SLC22A15] | 2.2 ± 0.46 | 2.1 ± 0.23 | – | –
VRVLDMVAKLESECLKRQGQREPG [FBXO34] | 4.06 ± 0.29 | 4.17 ± 0.31 | – | –
QQTKLEAEKLKVQALKDRGLSIPR [LSM1] | 4.12 ± 0.16 | 4.21 ± 0.075 | – | –
DKLSQKSSSSKLSRSPLKIVKKPK [EPB41L3] | 4.3 ± 0.66 | 4.79 ± 0.23 | – | –
KELEARVRKPAEAERYKLERLAEA [FLOT1] | 4.88 ± 0.29 | 4.95 ± 0.16 | – | –
SLHCLLDQFDKDLPVYLKKDPAYF [DENND6A] | 2.13 ± 0.41 | 2.23 ± 0.23 | – | –
HFSRLCGPESPPPPYSRLSPRDEY [SMAD6] | 3.42 ± 0.07 | 3.56 ± 0.17 | – | –
LPCQHNLCRKCANDIFQAANPYWT [TRIM63] | 2.38 ± 0.18 | 2.29 ± 0.14 | – | –
HARLRLSADRLTVRCGLLGSLGPV [TRIM14] | 2.2 ± 0.65 | 2.31 ± 0.3 | – | –
YIPRDVDETGITVASLERFSTYTS [ZC3H15] | 2.65 ± 0.16 | 2.96 ± 0.16 | – | –
PPPKTNLTPGQSDSAKREVKQKIS [FAN1] | 5.44 ± 0.24 | 5.35 ± 0.094 | – | –
GNKQWWFGGGCDLTPTYLNQEDAI [CPOX] | 3.12 ± 0.19 | 3.33 ± 0.23 | – | –
VGRTGCFIVIDAMLERIKHEKTVD [PTPRD] | 2.25 ± 0.34 | 2.54 ± 0.26 | – | –
NDALSCEYECRRRMLMKRLDVTVQ [FAM98B] | 2.61 ± 0.24 | 2.78 ± 0.38 | – | –
EEEEAAMYEEEMEREEITTKKRKL [FAM50A] | 5.66 ± 0.32 | 5.38 ± 0.34 | – | –
FAKLEKLTILAKRKSLFDDKAVEI [STX5] | 2.47 ± 0.23 | 2.48 ± 0.53 | – | –
AELLKANEIIKKLQGDLKTLMGKL [SASS6] | 2.36 ± 0.59 | 3.44 ± 0.66 | – | –
KFTNKEWETIRSFKDEWTQLDMFY [AASDHPPT] | 2 ± 0.36 | 2.22 ± 0.23 | – | –
MDDDFGVVKEEISDDNAKLPCFNG [DVL3] | 5.18 ± 0.19 | 5.21 ± 0.15 | – | –
NMERIMKAQALRDNSTMGYMMAKK [HSP90AB1] | 3.38 ± 0.19 | – | – | –
EGLLNTYQELLGLSFEQMTDAHVW [NLN] | 2.41 ± 0.32 | 2.49 ± 0.38 | – | –

Sequence | protein stability index [1] | protein stability index [2] | protein stability index (treatment: DMSO, c terminus: native) | protein stability index (treatment: MLN4924 1 uM, 8 h, c terminus: native)
AAGEQLQQQHVSCQVFPERLAQGN [ATP23] | 4.47 ± 0.15 | 4.5 ± 0.28 | – | –
LGVALFTMLAGHYPFQDSEPVLLF [TRIB3] | 2.94 ± 0.59 | 2.93 ± 0.27 | – | –
VAVNGESVETLDHDSVVEMIRKGG [PDZK1] | 4.61 ± 0.27 | 4.59 ± 0.24 | – | –
IRVPSVPPVPCVPSVPCTPAPQVG [KRT36] | 3.45 ± 0.27 | 3.57 ± 0.25 | – | –
SPNYPSKYPPDRECIYIIEAAPRQ [NETO1] | 2.58 ± 0.11 | 2.77 ± 0.31 | – | –
PYSFIEFDTFIQKTKKLYIDSRAR [SEC22B] | 2.38 ± 0.12 | 2.41 ± 0.25 | – | –
DFGACDGGLLTGNEKITMQNLNDR [KRT13] | 4.57 ± 0.33 | 4.53 ± 0.37 | – | –
AAGVFSNPAVRTAAANAAAGAAEN [SCAMP3] | 5.03 ± 0.1 | 5.06 ± 0.23 | – | –
TFPSGSGAHFPQVPGGAVRVAAAA [PI4K2A] | 3.81 ± 0.27 | 3.81 ± 0.32 | – | –
IEPRERAKFKRKYKVKLVEKRAFR [NOP53] | 2.87 ± 0.14 | 3.15 ± 0.32 | – | –
VTVLEDLEKGLEPEPQVPGPAHGP [ZNF232] | 4.99 ± 0.27 | 4.874 ± 0.039 | – | –
KYLKPSGNMFPTIGDVHLAPFTDE [CARM1] | 3.69 ± 0.1 | 3.61 ± 0.37 | – | –
TTNVKSASRQKTSLGIELHCNVSN [ZNF396] | 3.39 ± 0.29 | 3.82 ± 0.31 | – | –
QAPPQDSSNKKEKKVLNHGYDDDN [DYRK1B] | 5.61 ± 0.16 | 5.51 ± 0.11 | – | –
HSFVLVTSLGLTYDGMLSDVQSMP [MAGEA10] | 2.83 ± 0.53 | 2.88 ± 0.47 | – | –
SVNEVDFEGRTPMHVACQHGQENI [RIPK4] | 4.31 ± 0.27 | 4.57 ± 0.076 | – | –
QDLLKERQKDLKFLSEEEYWKLQI [CCNC] | 3.45 ± 0.13 | 3.67 ± 0.15 | – | –
LLASLTGGVLIDRYGRRTAIILSS [SLC2A12] | 2.86 ± 0.5 | 3.06 ± 0.87 | – | –
PGVFVLLACGTMSSTCGQLASYPL [SLC25A25] | 3.18 ± 0.3 | 2.66 ± 0.61 | – | –
NKHLCYVFDSEKCVSIPDVVGWFV [GULP1] | 2.76 ± 0.88 | 2.13 ± 0.51 | – | –
SPKTNGHIENGPFSLEQQLDDEDD [SRPK2] | 5.522 ± 0.051 | 5.56 ± 0.22 | – | –
PAGGLAPGGGRGALLDQIRQGIQL [WAS] | 4.7 ± 0.19 | 4.54 ± 0.76 | – | –
RRPRTAFTQNQIEVLENVFRVNCY [HESX1] | 2.39 ± 0.15 | 2.53 ± 0.24 | – | –

Sequence | protein stability index [1] | protein stability index [2] | protein stability index (treatment: DMSO, c terminus: native) | protein stability index (treatment: MLN4924 1 uM, 8 h, c terminus: native)
SDLEDMEEEEGTRSPTLEPPRGRS [SMG5] | 5.37 ± 0.16 | 5.39 ± 0.2 | – | –
KPAFIGKTNLDGMITVQLPEVPAN [PTPRD] | 3.77 ± 0.16 | 3.81 ± 0.19 | – | –
SATCTTGVMSAYAMCVRYDGVEVD [ADAMTSL2] | 2.72 ± 0.32 | 2.63 ± 0.17 | – | –
MSGDGATEQAAEYVPEKVKKAEKK [CSTF3] | 5.52 ± 0.18 | 5.65 ± 0.15 | – | –
RVIEVLPRGATAAVLAPDSSNASS [SEPHS2] | 4.31 ± 0.19 | 4.42 ± 0.18 | – | –
LDDLSQKLKPLGEAEREFILNLKK [NLN] | 3.36 ± 0.44 | 3.07 ± 0.22 | – | –
LQAELAAQEALREKAAALERQLKV [LRRC45] | 4.18 ± 0.094 | 4.25 ± 0.29 | – | –
CFSTGLSRRVLLTNVVTGHRQSFG [DCAF4] | 2.1 ± 0.18 | 2.38 ± 0.21 | – | –
TKNKELTDEFRELRATVERMGLMK [FADS1] | 3.71 ± 0.37 | 3.55 ± 0.27 | – | –
INILQNEKSHQVLAQLLDTLLAIG [INTS4] | 2.43 ± 0.31 | 2.17 ± 0.2 | – | –
ARSIAEQAHELAYDPNYMSPFAQF [PPTC7] | 2.91 ± 0.35 | 3.08 ± 0.27 | – | –
SEADASHCIQQILESVNHCHLNGI [CAMK2D] | 2.98 ± 0.27 | 2.89 ± 0.33 | – | –
VRCEALTGELETLKERCAQDACQA [CCDC89] | 4.43 ± 0.39 | 4.25 ± 0.18 | – | –
KKKYMPYNHQHKYFFLIGPPALLP [FADS1] | 3.14 ± 0.67 | 1.76 ± 0.053 | – | –
KMIGFPSSAGSVSPRSTSVTTTSS [KRT13] | 4.4 ± 0.067 | 4.16 ± 0.096 | – | –
TTISYLPHAPPFAGGHPAQLGLGR [JUNB] | 2.72 ± 0.2 | 2.61 ± 0.26 | – | –
TPISNEVEMESEEQIAERKRKMVS [KMT2E] | 5.02 ± 0.36 | 5.05 ± 0.18 | – | –
IPRENAQISLDGDVTFFGALKLL [TNFSF13B] | – | – | 2.71 ± 0.24 | 2.73 ± 0.46
QELDIKKNERLWLLDDSKTWWRVR [NCK2] | 2.37 ± 0.14 | 2.61 ± 0.28 | – | –
RQQVTNHGRGTEVLLEEPLPLETA [ZNF263] | 5 ± 0.28 | 5.04 ± 0.17 | – | –
